Values of other authors as cited in article PMC6272133.

Molecular target: LLT1 (Homo sapiens) (UniProt Q9UHP7)
Experiment: SPR

Sequence of UniProt Q9UHP7 (Q9UHP7 60-191): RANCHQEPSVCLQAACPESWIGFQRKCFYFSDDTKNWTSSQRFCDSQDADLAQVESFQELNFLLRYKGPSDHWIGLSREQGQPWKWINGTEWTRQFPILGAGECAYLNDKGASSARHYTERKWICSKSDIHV

Kd: 48 µM
Substance: NKRP1A ECD (from UniProt Q12918)
